Measured values as given in patent US20150087584A1.

Molecular target: Helicoverpa armigera gut proteases (HGP) (Helicoverpa armigera)
Assay: cell-based or functional assay

| HGPI activity of the IRD alone at its IC50 concentration [%] | inhibition of HGP activity (BApNA and Azocasein substrates) [%] | Binder |
| --- | --- | --- |
| 51 | 80 to 85 | NRLCTNCCAGRKGCNYYSADGTFICEGESDPNNPKACPRNCDPNIAYSLC [inhibitory repeat domain IRD-12 of Capsicum annuum Pin-II proteinase inhibitors (CanPIs)] |
|  | 80 to 85 | QPICTNSSAGLKGCNYYNADGTFICEGESDPNHPKACPKNCDPNIAYSLC [inhibitory repeat domain IRD-9 of Capsicum annuum Pin-II proteinase inhibitors (CanPIs)] |
